B1: TPR t1 (parent)
chain: GACCAAUCUGCCCUCAGAGCUCGAGAACAUCUUCGGAUGCAGAGGAGGCAGGCUUCGGUGGCGCGAUAGCGCCAACGUCCUCAACCUCCAAUGCAUCCCACCACAUGAUGAUGCCUGAAGAGCCUUGGUUUUUUG

Variants of: B1
Assay: polymerase ribozyme fitness, log enrichment relative to wild type (log ratio); higher = more active; in vitro selection for triplet polymerase activity
How it was run: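 Fitness is a logarithmic measure of how a genotype enriched relative to the wild type, with replicate averages weighted by inverse variance. The logarithm uses base 2, and enrichment came from Illumina sequencing of input and output libraries. Those libraries were PCR-built, transcribed mutants of each subunit of a heterodimeric triplet polymerase ribozyme, passed through one triplicate in vitro selection round that included frozen incubation at −7 °C, gel excision of extended constructs and streptavidin-bead capture. Genotypes were kept only if they had ≥10 input reads and ≥1 read per output.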

| Variant | polymerase ribozyme fitness (log ratio) |
| --- | --- |
| GACCAAUCUGCCCUCAGAGCUCGAGUACAUCUUCGGAUGCAGAGGAGGCAGGCUUCGGUGGCGCGAUAGCGACAACGCCCUCAACCUCCACUGCAUCCCACCACAUGAUGAUGCCUGGAGUGCCUCGGUUUUUUG | -5.75 |
| GACCAAUCUGCCCUCAGAGCUCGAGAACAUCUUCGGAUGCAGAGGAUGCAGGCUUCGGUGGCGCGAUAGCGCCAACGUCCUCAACCUCCAAUGCAUCCCACCACAUGAUGAUGCCUGAAGAGCCUUGGUUUUUUA | -2.09 |
| GACCAAUCUGCCCUCAGAGCUCGAGAACAUCUACGGAUGCAGAGGCGGCAGGCUUCGGUGACGCGAUAGCGCCAACGUCCUCAACCUCCAAUGCAUCCCACCACAUGAUGAUGCCUGAAGAGCCUUGGUUUUUUG | -5.04 |
| GACCAAUCUGCCCUCAGAGCUCGAGAACAUCUUCGGAUGCAGAGGAGGCAGGCUUCGGUGGCGCGAUAGCGCCAACGUCCUCAACCUCCAAUGCAUCCCACCACAUGAUAAUGCCUGAAUAGCCUUGGUUUUUUG | -1.91 |
| GACCAAUCUGCACUCAGAGCUCGAGAACAUCUUCGGAUGCAGAGGAGGCAGGUUUCGGUGGCGCGAUAGCGCCAACGACCGCAACCUCCAAUGCAUCCCACCACAUGAUGAUGCCUGAAGAGCCUUGGUUUUUUG | -2.32 |
| GACCAAUCUGCCCUCAGAGCUCGAGAACAUCUUCGGAUGCAGAGGAGGCAGGGUUCGGUCGCGCGAUAGCGCCAACGUCCUCAACCUCCAAUGCAUCACACAACAUGAUGAUGCCUGAAGAGCCUUGGUUUUUUG | -6.1 |
| GACCAAUCUGCCCACAGAGCUCGAGAACAUCUUCGGAUGCAGAGGAGGCAGGCUUCGGUGGCGCGAUAGCGCCAACGUCCUAAACCUCCAAUGCAUCGCACCACAUGAUCAUGCCUGAAGAGCCUUGGUUUUUUG | -7.59 |
| GACCAAUCUGCCCUCACAGCUCGAGAACAUCUUCGGAUGUAGUGGAGGCAGGCUUCGGUGGCGCGAUAGCGCCAACGUCCUCAACCUCCAAUGCAUCCCACCACAUGAUGAUGCCUGAAGAGCCUUGGUGUUUUG | -3.78 |
| GACCAAUCUGCCCUCAGAGCUCGAGAACAUCUUCGGAUGCAGAGGAGGCAGGCUUCGGUGGCGCGAUAGCGCCUACGUCCUCUCCCUCCAAUGCAUCCCACCACAUGAUGAUGCCUGAAUAACCAUGGUUUUUUG | -1.84 |
| GACCAAUCUGCCCUCAGAGCUCGAGAACAUCUUCGGAUACAGAGGAGGCAUGCUUCGGUGGCGCGAUAGCGCCAACGUUCUCAACCUCCAAUGCAUCCCAUCACAUGAUGAUGCCUGAAGAGCCUUGGUUUUUUG | -5.14 |
| GACCAAUCUGCCCUCAGAGCUCGAGAACAUCCUCGGAUGCAGAGGAGGCAGGCUUCGGUGGCACGAUAGCGCCUACGUCCUCAACCUCCAAUGCAUCCCACCACAUGAUGAUGCCUGAAGAGCCUUGGUUUUUUG | -3.86 |
| GACCAAUCUGCCGUCAAAGCUCGAGAACAUCUUCGGAUGCAGAGGAGGCAGGCUGCGGUGGCGCGAUAGCGCCAACGUCCUCAACCUCCAAUGCAUCCCACCACAUGAUGAUGCCUGAAGAGCCUUGGUUUUUUG | -5.5 |
| GACCAAUCUGCCCUCAGAGCUCGAGAACAUCUUCGGAUGCAGAGGAGGCAGGCUUCGGUGGCGCGAUAGCGCCAACGUUCUCAACCUCAAAUGCAUCCCACCACAUGAUGAUGCCUUAAGAGGCUUGGUUUUUUG | -1.41 |
| GACCAAUCUGCCCUCAGAGCACGAGAACAUCUUCGGAUGCAGAGGAGGGAGGCUUCGGUGUCGCGAUAGCGCCAACGUCCUCAACCUCCAAUGCAUCCCACCACAUGAUGAUGCCUGAAGAGCCUUGGUCUUUUG | -0.83 |
| GACCAAUCUGCCCUCAGAGCUGGAGAACAUCUUCGGAUGCAGAGGAGGCAGGCUUCGGUUGCGCGAUAGCGCCAACGUCCUCAAACUCCAAUGCAUCCCACCACAUGAUGAUGCCUGAAGAGCCUUGGUUUUUUG | -4.53 |
| GACCAAUCUGCCCUCAGAGCUCGAGAACAUCUUCGGAUGCAGAGGAGGCAGGCUUCGGUGGCGCGAUAGCGCCAACGUCCUCAACCUCAAAUGCAUCCCACCACAUGAUAAUGCCUGAAGAGCCUUGGUUUUUUG | -3.58 |
| GACCAAUCUCCCCUCAGAGCUCGAGAACAUCUUCGGAUGCAGAGGAGGCAAGCUUCGGUGGCGCGAUAGCGCCAACGUCCUCAACCUCCAAUGCAUCCCACCACAAGAUGAAGCCUGAAGAGCCUUGGUUUUUUG | -5.36 |
| GACCAAUCUGCCCUCAGAGCUCGAGAACAUCUUCGGAUGCAGAGGAGGCAGGCUUCGGUGGCGCGAUAGCGCCAAGGUCCUCAACCUCCAAUGCGUCCCACCACAUGAUGAUGCCUGAAGAGCCUUGGUUUUUUG | -0.229 |
| GACCAAUCUGCCCUCAGAGCUCGAGAACAUCUUCGGAUGCAGAGGAGGCAGGCUUCGGUGGCGCGAUAGCGCCAACGUCCUCAACCUCCAAUGCAUCCCACCACAUGAUGAUUCCUGAAGAGCCUUGGGUUUUUG | -5.28 |
| GACCAAUCUGCCCUCAGAGCUGGAGAACAUCUUCGGAUGCAGAGGAGGCAGGCUUCGGUGGCGCGAUAGCGCCAACGUCCUCAACCUCCGAUGCAUCCCACCACAUGAUGAUGCCUGAAGAGCCUUGGUUUUUUG | -3.06 |
| GACCAAUCUGCCCUCAGAGCUCGAGAACAUCUUCGGAUGCAGAGGAGGCAGGCUUCGGUUGCGCGAUAGCGCCAACGUCCUCAACCUCCAAUGCAUCCCACCACAUGAUCAUGCCUGAAGAGCCUUGGUUUUUUG | -2.76 |

Source: the RNAGym collection of RNA variant scans (doi:10.1073/pnas.2313332121)
